Results published in IntAct's records for PubMed 33199366.

B1: Serine/threonine-protein kinase DCLK2 (Homo sapiens), Q8N568 (parent)
chain: MASTRSIELEHFEERDKRPRPGSRRGAPSSSGGSSSSGPKGNGLIPSPAHSAHCSFYRTRTLQALSSEKKAKKARFYRNGDRYFKGLVFAISSDRFRSFDALLIELTRSLSDNVNLPQGVRTIYTIDGSRKVTSLDELLEGESYVCASNEPFRKVDYTKNINPNWSVNIKGGTSRALAAASSVKSEVKESKDFIKPKLVTVIRSGVKPRKAVRILLNKKTAHSFEQVLTDITEAIKLDSGVVKRLCTLDGKQVTCLQDFFGDDDVFIACGPEKFRYAQDDFVLDHSECRVLKSSYSRSSAVKYSGSKSPGPSRRSKSPASVNGTPSSQLSTPKSTKSSSSSPTSPGSFRGLKQISAHGRSSSNVNGGPELDRCISPEGVNGNRCSESSTLLEKYKIGKVIGDGNFAVVKECIDRSTGKEFALKIIDKAKCCGKEHLIENEVSILRRVKHPNIIMLVEEMETATELFLVMELVKGGDLFDAITSSTKYTERDGSAMVYNLANALRYLHGLSIVHRDIKPENLLVCEYPDGTKSLKLGDFGLATVVEGPLYTVCGTPTYVAPEIIAETGYGLKVDIWAAGVITYILLCGFPPFRSENNLQEDLFDQILAGKLEFPAPYWDNITDSAKELISQMLQVNVEARCTAGQILSHPWVSDDASQENNMQAEVTGKLKQHFNNALPKQNSTTTGVSVIMNTALDKEGQIFCSKHCQDSGRPGMEPISPVPPSVEEIPVPGEAVPAPTPPESPTPHPPPAAPGGERAGTWRRHRD
partner: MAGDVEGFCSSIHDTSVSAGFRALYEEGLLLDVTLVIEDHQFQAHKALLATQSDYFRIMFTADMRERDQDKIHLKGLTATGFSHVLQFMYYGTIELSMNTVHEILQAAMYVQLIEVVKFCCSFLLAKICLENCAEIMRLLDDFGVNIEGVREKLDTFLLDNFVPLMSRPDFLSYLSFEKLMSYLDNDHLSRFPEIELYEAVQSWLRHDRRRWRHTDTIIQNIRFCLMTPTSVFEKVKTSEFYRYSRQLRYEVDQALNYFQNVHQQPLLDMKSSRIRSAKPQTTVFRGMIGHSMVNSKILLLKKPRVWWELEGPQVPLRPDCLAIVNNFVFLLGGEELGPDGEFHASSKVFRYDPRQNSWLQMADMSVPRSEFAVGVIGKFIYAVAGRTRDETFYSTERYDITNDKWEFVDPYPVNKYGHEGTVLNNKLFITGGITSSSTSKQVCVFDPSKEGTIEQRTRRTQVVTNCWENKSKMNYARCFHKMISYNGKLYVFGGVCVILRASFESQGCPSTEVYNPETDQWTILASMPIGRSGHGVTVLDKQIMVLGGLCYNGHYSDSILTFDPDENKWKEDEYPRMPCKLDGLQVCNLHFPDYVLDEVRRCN
B2: Serine/threonine-protein kinase DCLK1 (Homo sapiens), O15075 (parent)
chain: MSFGRDMELEHFDERDKAQRYSRGSRVNGLPSPTHSAHCSFYRTRTLQTLSSEKKAKKVRFYRNGDRYFKGIVYAISPDRFRSFEALLADLTRTLSDNVNLPQGVRTIYTIDGLKKISSLDQLVEGESYVCGSIEPFKKLEYTKNVNPNWSVNVKTTSASRAVSSLATAKGSPSEVRENKDFIRPKLVTIIRSGVKPRKAVRILLNKKTAHSFEQVLTDITDAIKLDSGVVKRLYTLDGKQVMCLQDFFGDDDIFIACGPEKFRYQDDFLLDESECRVVKSTSYTKIASSSRRSTTKSPGPSRRSKSPASTSSVNGTPGSQLSTPRSGKSPSPSPTSPGSLRKQRSSQHGGSSTSLASTKVCSSMDENDGPGEEVSEEGFQIPATITERYKVGRTIGDGNFAVVKECVERSTAREYALKIIKKSKCRGKEHMIQNEVSILRRVKHPNIVLLIEEMDVPTELYLVMELVKGGDLFDAITSTNKYTERDASGMLYNLASAIKYLHSLNIVHRDIKPENLLVYEHQDGSKSLKLGDFGLATIVDGPLYTVCGTPTYVAPEIIAETGYGLKVDIWAAGVITYILLCGFPPFRGSGDDQEVLFDQILMGQVDFPSPYWDNVSDSAKELITMMLLVDVDQRFSAVQVLEHPWVNDDGLPENEHQLSVAGKIKKHFNTGPKPNSTAAGVSVIATTALDKERQVFRRRRNQDVRSRYKAQPAPPELNSESEDYSPSSSETVRSPNSPF
partner: B1 partner
B3: Neuronal migration protein doublecortin (Mus musculus), O88809 (parent)
chain: MELDFGHFDERDKASRNMRGSRMNGLPSPTHSAHCSFYRTRTLQALSNEKKAKKVRFYRNGDRYFKGIVYAVSSDRFRSFDALLADLTRSLSDNINLPQGVRYIYTIDGSRKIGSMDELEEGESYVCSSDNFFKKVEYTKNVNPNWSVNVKTSANMKAPQSLASSNSAQARENKDFVRPKLVTIIRSGVKPRKAVRVLLNKKTAHSFEQVLTDITEAIKLETGVVKKLYTLDGKQVTCLHDFFGDDDVFIACGPEKFRYAQDDFSLDENECRVMKGNPSAAAGPKASPTPQKTSAKSPGPMRRSKSPADSGNDQDANGTSSSQLSTPKSKQSPISTPTSPGSLRKHKVDLYLPLSLDDSDSLGDSM
partner: B1 partner

Variants of: B1
Settings: with klh15_human KLHL15, Q96M94

Row | effect of a mutation on the interaction | Variant
1 | decreasing interaction | Y276L

Variants of: B2
Settings: with klh15_human KLHL15, Q96M94

Row | effect of a mutation on the interaction | Variant
2 | decreasing interaction | Y265L

Variants of: B3
Settings: with klh15_human KLHL15, Q96M94

Row | effect of a mutation on the interaction | Variant
3 | decreasing interaction | MELDFGHFDERDKASRNMRGSRMNGLPSPTHSAHCSFYRTRTLQALSNEKKAKKVRFYRNGDRYFKGIVYAVSSDRFRSFDALLADLTRSLSDNINLPQGVRYIYTIDGSRKIGSMDELEEGESYVCSSDNFFKKVEYTKNVNPNWSVNVKTSANMKAPQSLASSNSAQARENKDFVRPKLVTIIRSGVKPRKAVRVLLNKKTAHSFEQVLTDITEAIKLETGVVKKLYTLDGKQVTCLHDFFGDDDVFIACGPEKFRLAQDDFSLDENECRVMKGNPSAAAGPKASPTPQKTSAKSPGPMRRSKSPADSGNDQDANGTSSSQLSTPKSKQSPISTPTSPGSLRKHKVDLYLPLSLDDSDSLGDSM [Y259L]
